Experiments:
DMF5 TCR [1] = molecular target: DMF5 TCR
DMF5 TCR [2] = test: flow cytometry of Jurkat/MA cells transduced with DMF5, stained with the pooled barcoded tetramer library

| Substance | percent tetramer-positive cells (DMF5 TCR [1]) [%] | percent DMF5 positive cells (DMF5 TCR [2]) [%] |
| --- | --- | --- |
| CMVpp65/HLA-A*02:01 tetramer (from UniProt P61769 21-119) (peptide-MHC) | 0.1 |  |
| MART-1/HLA-A*02:01 tetramer (from UniProt P61769 21-119) (peptide-MHC) |  | 33 |
